# Reference: patent US20180296707A1, “PHARMACEUTICAL FORMULATION AND METHOD OF PREPARING THE SAME” (SeeCure Taiwan Co., Ltd., priority 2017, published 2018)
# How the values were obtained:
# human colorectal tumor = test: PET/CT imaging, tumor/muscle count density in colorectal tumor models; assay type: in vivo, athymic nude mice; conditions: 500 μCi/mouse iv;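 note: human colorectal tumors grown on the hind legs of athymic nude mice, imaged by micro-PET/CT 21 to 28 days post inoculation, once tumors reached roughly 0.5 cm across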
# Description: (§1) Briefly, athymic nude mice (15±2 g) bearing human tumors (at hind legs) derived from the colorectal and pancreatic cell line were used for imaging studies. Studies were performed 21 to 28 days after inoculation when tumors were approximately 0.5 cm in diameter. Scintigraphic images were obtained either from a micro-PET (Inveon) embedded in the gantries coordinate PET/CT data acquisition. […] The static images were obtained at 0.5, 1 and 2 hrs.
# [1] = as above; assay type: in vivo, athymic nude mice; conditions: athymic nude, tumor/muscle, 500 uCi/mouse, total radioactivity, 500 μCi/mouse iv
# Description: as §1
# SSTR3 = SSTR3 (Homo sapiens, UniProt P32745); conditions: background statement; cited from earlier work
# Sequence of SSTR3 (P32745 whole entry, species assumed): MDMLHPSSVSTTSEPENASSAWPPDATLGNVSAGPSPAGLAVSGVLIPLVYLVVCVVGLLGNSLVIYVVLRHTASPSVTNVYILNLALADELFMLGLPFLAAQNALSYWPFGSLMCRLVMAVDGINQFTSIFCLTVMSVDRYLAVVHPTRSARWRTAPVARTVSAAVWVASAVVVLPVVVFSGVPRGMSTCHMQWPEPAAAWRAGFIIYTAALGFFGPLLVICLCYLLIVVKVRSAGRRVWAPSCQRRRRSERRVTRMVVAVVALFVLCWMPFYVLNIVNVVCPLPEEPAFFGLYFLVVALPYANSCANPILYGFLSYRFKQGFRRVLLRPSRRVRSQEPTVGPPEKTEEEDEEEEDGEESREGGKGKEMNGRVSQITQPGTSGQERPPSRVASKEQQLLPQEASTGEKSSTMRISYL
# SSTR2 = SSTR2 (Homo sapiens, UniProt P30874); conditions: background statement; cited from earlier work
# Sequence of SSTR2 (P30874 whole entry, species assumed): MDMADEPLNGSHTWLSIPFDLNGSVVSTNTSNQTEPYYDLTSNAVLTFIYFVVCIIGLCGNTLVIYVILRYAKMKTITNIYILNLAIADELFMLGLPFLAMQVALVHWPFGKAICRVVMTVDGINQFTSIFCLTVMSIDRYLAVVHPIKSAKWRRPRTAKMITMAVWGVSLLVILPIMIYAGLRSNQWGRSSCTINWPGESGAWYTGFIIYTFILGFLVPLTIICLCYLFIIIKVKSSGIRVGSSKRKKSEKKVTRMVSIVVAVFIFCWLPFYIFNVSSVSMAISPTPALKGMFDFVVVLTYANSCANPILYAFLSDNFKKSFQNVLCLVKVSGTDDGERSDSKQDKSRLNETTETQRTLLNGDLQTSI
# human pancreatic tumor = test: PET/CT imaging, tumor/muscle count density in pancreatic tumor models; conditions: human pancreatic-tumor bearing mouse, FIG. 12
# Description: as §1
compound,measurement,setting,value
"C[C@@H](O)[C@H](NC(=O)[C@@H]1CSSC[C@H](NC(=O)[C@@H](Cc2ccccc2)NC(=O)CN2CCN(CC(=O)O)CCN(CC(=O)O)CCN(CC(=O)O)CC2)C(=O)N[C@@H](Cc2ccc(O)cc2)C(=O)N[C@H](Cc2c[nH]c3ccccc23)C(=O)N[C@@H](CCCCN)C(=O)N[C@@H]([C@@H](C)O)C(=O)N1)C(=O)O [^68Ga-DOTATATE, metal not drawn]",Muscle count density,"human colorectal tumor; frame 0, midpoint 15 sec",0.242
same,Tumor count density,"human colorectal tumor; frame 0, midpoint 15 sec",0.290
same,Muscle count density,"human colorectal tumor; frame 1, midpoint 30 sec",0.273
same,Tumor count density,"human colorectal tumor; frame 1, midpoint 30 sec",0.286
same,Muscle count density,"human colorectal tumor; frame 2, midpoint 45 sec",0.237
same,Tumor count density,"human colorectal tumor; frame 2, midpoint 45 sec",0.298
same,Muscle count density,"human colorectal tumor; frame 3, midpoint 60 sec",0.255
same,Tumor count density,"human colorectal tumor; frame 3, midpoint 60 sec",0.324
same,Muscle count density,"human colorectal tumor; frame 4, midpoint 90 sec",0.238
same,Tumor count density,"human colorectal tumor; frame 4, midpoint 90 sec",0.296
same,Muscle count density,"human colorectal tumor; frame 5, midpoint 120 sec",0.227
same,Tumor count density,"human colorectal tumor; frame 5, midpoint 120 sec",0.296
same,Muscle count density,"human colorectal tumor; frame 6, midpoint 180 sec",0.235
same,Tumor count density,"human colorectal tumor; frame 6, midpoint 180 sec",0.284
same,Muscle count density,"human colorectal tumor; frame 7, midpoint 240 sec",0.233
same,Tumor count density,"human colorectal tumor; frame 7, midpoint 240 sec",0.303
same,Muscle count density,"human colorectal tumor; frame 8, midpoint 300 sec",0.231
same,Tumor count density,"human colorectal tumor; frame 8, midpoint 300 sec",0.300
same,Muscle count density,"human colorectal tumor; frame 9, midpoint 360 sec",0.232
same,Tumor count density,"human colorectal tumor; frame 9, midpoint 360 sec",0.286
same,Muscle count density,"human colorectal tumor; frame 10, midpoint 540 sec",0.230
same,Tumor count density,"human colorectal tumor; frame 10, midpoint 540 sec",0.287
same,Muscle count density,"human colorectal tumor; frame 11, midpoint 720 sec",0.231
same,Tumor count density,"human colorectal tumor; frame 11, midpoint 720 sec",0.300
same,Muscle count density,"human colorectal tumor; frame 12, midpoint 900 sec",0.227
same,Tumor count density,"human colorectal tumor; frame 12, midpoint 900 sec",0.294
same,Muscle count density,"human colorectal tumor; frame 13, midpoint 1200 sec",0.206
same,Tumor count density,"human colorectal tumor; frame 13, midpoint 1200 sec",0.292
same,Muscle count density,"human colorectal tumor; frame 14, midpoint 1500 sec",0.200
same,Tumor count density,"human colorectal tumor; frame 14, midpoint 1500 sec",0.288
same,Muscle count density,"human colorectal tumor; frame 15, midpoint 1800 sec",0.180
same,Tumor count density,"human colorectal tumor; frame 15, midpoint 1800 sec",0.279
same,tissue to tissue ratio,"[1]; colorectal tumor-bearing mice, dynamic images 0 to 30 minutes, read-out: average tumor/muscle (T/M) count density ratios, approximate range",1.2
same,tissue to tissue ratio at 15 s,"[1]; frame 0, midpoint 15 sec",1.2
same,tissue to tissue ratio at 0.5 min,"[1]; frame 1, midpoint 30 sec",1.05
same,tissue to tissue ratio at 45 s,"[1]; frame 2, midpoint 45 sec",1.26
same,tissue to tissue ratio at 1 min,"[1]; frame 3, midpoint 60 sec",1.27
same,tissue to tissue ratio at 0.025 h,"[1]; frame 4, midpoint 90 sec",1.24
same,tissue to tissue ratio at 2 min,"[1]; frame 5, midpoint 120 sec",1.3
same,tissue to tissue ratio at 0.05 h,"[1]; frame 6, midpoint 180 sec",1.21
same,tissue to tissue ratio at 4 min,"[1]; frame 7, midpoint 240 sec",1.3
same,tissue to tissue ratio at 5 min,"[1]; frame 8, midpoint 300 sec",1.3
same,tissue to tissue ratio at 0.1 h,"[1]; frame 9, midpoint 360 sec",1.23
same,tissue to tissue ratio at 0.15 h,"[1]; frame 10, midpoint 540 sec",1.25
same,tissue to tissue ratio at 0.2 h,"[1]; frame 11, midpoint 720 sec",1.3
same,tissue to tissue ratio at 0.25 h,"[1]; frame 12, midpoint 900 sec",1.29
same,tissue to tissue ratio at 20 min,"[1]; frame 13, midpoint 1200 sec",1.42
same,tissue to tissue ratio at 25 min,"[1]; frame 14, midpoint 1500 sec",1.44
same,tissue to tissue ratio at 0.5 h,"[1]; frame 15, midpoint 1800 sec",1.55
C[C@@H](O)[C@@H]1NC(=O)[C@H](CCCCN)NC(=O)[C@@H](Cc2c[nH]c3ccccc23)NC(=O)[C@H](Cc2ccccc2)NC(=O)[C@@H](NC(=O)[C@H](N)Cc2ccccc2)CSSC[C@@H](C(=O)N[C@H](CO)[C@@H](C)O)NC1=O [octreotide],affinity to SSTR3 subtype,SSTR3,low affinity
same,affinity to SSTR2 subtype,SSTR2,high affinity
O=C([O-])CN1CCN(CC(=O)[O-])CCN(CC(=O)O)CCN(CC(=O)[O-])CC1.[68Ga+3] [^68Ga-DOTA],bladder uptake (PET/CT),human pancreatic tumor,high bladder uptake
same,clearance (PET/CT),human pancreatic tumor,fast clearance
same,visualization of neuroendocrine tumors by PET/CT,human pancreatic tumor,could not be used to visualize neuroendocrine tumors
